Test results taken from patent US20030224487A1.
Each block holds one molecule with its values, some of them ahead of it.

Key:
[1] = biological target: human zcytor17 receptor, full length, on transfected cells (human); assay: flow cytometry (SA-PE), BHK-C17 cells, ligand 0.010 µg/mL
[2] = biological target: human zcytor17 receptor, full length, on transfected cells (human); assay: flow cytometry (SA-PE), BAF3-C17 cells, ligand 0.0 ng/mL (no ligand, background)
[3] = biological target: human OncostatinM receptor beta (OSMRbeta), full length, on transfected cells (human); assay: flow cytometry (SA-PE), BAF3-OSMRbeta cells, ligand 0.12 µg/mL (background level; no binding)
[4] = biological target: human zcytor17 receptor, full length, on transfected cells (human); assay: flow cytometry (SA-PE), BHK-C17 cells, ligand 0.0001 µg/mL
[5] = biological target: human zcytor17 and OSMRbeta co-expressed on transfected cells (human); assay: flow cytometry (SA-PE), BHK C17 + OSMRbeta cells, ligand 0.001 µg/mL
[6] = biological target: human zcytor17 and OSMRbeta co-expressed on transfected cells (human); assay: flow cytometry (SA-PE), BAF3-C17 + OSMRbeta cells, ligand 0.00 µg/mL (no ligand, background)
[7] = biological target: human zcytor17 receptor, full length, on transfected cells (human); assay: flow cytometry (SA-PE), BAF3-C17 cells, ligand 100.0 ng/mL
[8] = biological target: human zcytor17 and OSMRbeta co-expressed on transfected cells (human); assay: flow cytometry (SA-PE), BHK C17 + OSMRbeta cells, ligand 0.0001 µg/mL
[9] = biological target: human OncostatinM receptor beta (OSMRbeta), full length, on transfected cells (human); assay: flow cytometry (SA-PE), BAF3-OSMRbeta cells, ligand 1.11 µg/mL (background level; no binding)
[10] = biological target: human zcytor17 receptor, full length, on transfected cells (human); assay: flow cytometry (SA-PE), BHK-C17 cells, ligand 0.000001 µg/mL
[11] = biological target: human zcytor17 receptor, full length, on transfected cells (human); assay: flow cytometry (SA-PE), BAF3-C17 cells, ligand 10.0 ng/mL
[12] = biological target: human OncostatinM receptor beta (OSMRbeta), full length, on transfected cells (human); assay: flow cytometry (SA-PE), BAF3-OSMRbeta cells, ligand 3.33 µg/mL (background level; no binding)
[13] = biological target: human zcytor17 and OSMRbeta co-expressed on transfected cells (human); assay: flow cytometry (SA-PE), BHK C17 + OSMRbeta cells, ligand 0.0 µg/mL (no ligand, background)
[14] = biological target: human OncostatinM receptor beta (OSMRbeta), full length, on transfected cells (human); assay: flow cytometry (SA-PE), BAF3-OSMRbeta cells, ligand 10.0 µg/mL (background level; no binding)
[15] = biological target: human OncostatinM receptor beta (OSMRbeta), full length, on transfected cells (human); assay: flow cytometry (SA-PE), BHK-OSMRbeta cells, ligand 2.0 µg/mL (background level; no binding)
[16] = biological target: human OncostatinM receptor beta (OSMRbeta), full length, on transfected cells (human); assay: flow cytometry (SA-PE), BAF3-OSMRbeta cells, ligand 0.04 µg/mL (background level; no binding)
[17] = biological target: human zcytor17 receptor, full length, on transfected cells (human); assay: flow cytometry (SA-PE), BHK-C17 cells, ligand 0.0 µg/mL (no ligand, background)
[18] = biological target: human zcytor17 and OSMRbeta co-expressed on transfected cells (human); assay: flow cytometry (SA-PE), BHK C17 + OSMRbeta cells, ligand 0.010 µg/mL
[19] = biological target: human zcytor17 and OSMRbeta co-expressed on transfected cells (human); assay: flow cytometry (SA-PE), BHK C17 + OSMRbeta cells, ligand 2.0 µg/mL
[20] = biological target: human zcytor17 receptor, full length, on transfected cells (human); assay: flow cytometry (SA-PE), BAF3-C17 cells, ligand 1.0 ng/mL
[21] = biological target: human OncostatinM receptor beta (OSMRbeta), full length, on transfected cells (human); assay: flow cytometry (SA-PE), BHK-OSMRbeta cells, ligand 0.0 µg/mL (no ligand, background)
[22] = biological target: human zcytor17 and OSMRbeta co-expressed on transfected cells (human); assay: flow cytometry (SA-PE), BHK C17 + OSMRbeta cells, ligand 0.00001 µg/mL
[23] = biological target: human zcytor17 and OSMRbeta co-expressed on transfected cells (human); assay: flow cytometry (SA-PE), BHK C17 + OSMRbeta cells, ligand 0.000001 µg/mL
[24] = biological target: human zcytor17 and OSMRbeta co-expressed on transfected cells (human); assay: flow cytometry (SA-PE), BAF3-C17 + OSMRbeta cells, ligand 1.11 µg/mL
[25] = biological target: human OncostatinM receptor beta (OSMRbeta), full length, on transfected cells (human); assay: flow cytometry (SA-PE), BAF3-OSMRbeta cells, ligand 0.00 µg/mL (no ligand, background)
[26] = biological target: human zcytor17 and OSMRbeta co-expressed on transfected cells (human); assay: flow cytometry (SA-PE), BAF3-C17 + OSMRbeta cells, ligand 3.33 µg/mL
[27] = biological target: human OncostatinM receptor beta (OSMRbeta), full length, on transfected cells (human); assay: flow cytometry (SA-PE), BAF3-OSMRbeta cells, ligand 0.37 µg/mL (background level; no binding)
[28] = biological target: human zcytor17 and OSMRbeta co-expressed on transfected cells (human); assay: flow cytometry (SA-PE), BAF3-C17 + OSMRbeta cells, ligand 0.04 µg/mL
[29] = biological target: human zcytor17 and OSMRbeta co-expressed on transfected cells (human); assay: flow cytometry (SA-PE), BAF3-C17 + OSMRbeta cells, ligand 0.12 µg/mL
[30] = biological target: human zcytor17 receptor, full length, on transfected cells (human); assay: flow cytometry (SA-PE), BHK-C17 cells, ligand 0.001 µg/mL
[31] = biological target: human zcytor17 and OSMRbeta co-expressed on transfected cells (human); assay: flow cytometry (SA-PE), BHK C17 + OSMRbeta cells, ligand 0.100 µg/mL
[32] = biological target: human zcytor17 and OSMRbeta co-expressed on transfected cells (human); assay: flow cytometry (SA-PE), BAF3-C17 + OSMRbeta cells, ligand 10.0 µg/mL
[33] = biological target: human zcytor17 receptor, full length, on transfected cells (human); assay: flow cytometry (SA-PE), BHK-C17 cells, ligand 0.00001 µg/mL
[34] = biological target: human zcytor17 receptor, full length, on transfected cells (human); assay: flow cytometry (SA-PE), BHK-C17 cells, ligand 2.0 µg/mL
[35] = biological target: human zcytor17 receptor, full length, on transfected cells (human); assay: flow cytometry (SA-PE), BHK-C17 cells, ligand 0.100 µg/mL
[36] = biological target: human zcytor17 and OSMRbeta co-expressed on transfected cells (human); assay: flow cytometry (SA-PE), BAF3-C17 + OSMRbeta cells, ligand 0.37 µg/mL
[37] = biological target: human zcytor17 and OSMRbeta co-expressed on transfected cells (human); assay: cell-based or functional assay
[38] = biological target: human zcytor17, OSMRbeta and WSX-1 co-expressed on transfected cells (human); assay: cell-based or functional assay

- mean fluorescent intensity (MFI) [1]: 244
- mean fluorescent intensity (MFI) [2]: 7
- mean fluorescent intensity (MFI) [3]: 5
- mean fluorescent intensity (MFI) [4]: 16
- mean fluorescent intensity (MFI) [5]: 53
- mean fluorescent intensity (MFI) [6]: 7
- mean fluorescent intensity (MFI) [7]: 347
- mean fluorescent intensity (MFI) [8]: 17
- mean fluorescent intensity (MFI) [9]: 5
- mean fluorescent intensity (MFI) [10]: 14
- mean fluorescent intensity (MFI) [11]: 72
- mean fluorescent intensity (MFI) [12]: 5
- mean fluorescent intensity (MFI) [13]: 13
- mean fluorescent intensity (MFI) [14]: 6
- mean fluorescent intensity (MFI) [15]: 13
- mean fluorescent intensity (MFI) [16]: 5
- mean fluorescent intensity (MFI) [17]: 15
- mean fluorescent intensity (MFI) [18]: 328
- mean fluorescent intensity (MFI) [19]: 3780
- mean fluorescent intensity (MFI) [20]: 17
- mean fluorescent intensity (MFI) [21]: 0
- mean fluorescent intensity (MFI) [22]: 15
- mean fluorescent intensity (MFI) [23]: 14
- mean fluorescent intensity (MFI) [24]: 489
- mean fluorescent intensity (MFI) [25]: 11
- mean fluorescent intensity (MFI) [26]: 508
- mean fluorescent intensity (MFI) [27]: 5
- mean fluorescent intensity (MFI) [28]: 247
- mean fluorescent intensity (MFI) [29]: 364
- mean fluorescent intensity (MFI) [30]: 39
- mean fluorescent intensity (MFI) [31]: 2130
- mean fluorescent intensity (MFI) [32]: 531
- mean fluorescent intensity (MFI) [33]: 15
- mean fluorescent intensity (MFI) [34]: 3030
- mean fluorescent intensity (MFI) [35]: 1600
- mean fluorescent intensity (MFI) [36]: 441
Molecule: biotinylated human zcytor17L (ligand)

- proliferation of BaF3/zcytor17/OSMRbeta cells (Alamar Blue) with conditioned media from activated CCRF-CEM and CCRF-HSB2 cells (fold over background) [37]: 10
- proliferation of BaF3/zcytor17/OSMRbeta cells (Alamar Blue) with conditioned media from activated CD3+ selected human cells [37]: 15 fold
- proliferation of BaF3/zcytor17/WSX-1/OSMRbeta cells (Alamar Blue) with conditioned media from activated CCRF-CEM and CCRF-HSB2 cells (fold over background) [38]: 10
- proliferation of BaF3/zcytor17/WSX-1/OSMRbeta cells (Alamar Blue) with conditioned media from activated CD3+ selected human cells (fold over background) [38]: 15
B1: human zcytor17lig (untagged, expressed from cDNA or native in conditioned media) (ligand)
chain: MASHSGPSTSVLFLFCCLGGWLASHTLPVRLLRPSDDVQKIVEELQSLSKMLLKDVEEEKGVLVSQNYTLPCLSPDAQPPNNIHSPAIRAYLKTIRQLDNKSVIDEIIEHLDKLIFQDAPETNISVPTDTHECKRFILTISQQFSECMDLALKSLTSGAQQATT
